For assay [1], the target named is e5-FtsB_(25–103)/k5-FtsL_(64–121) complex (E. coli) (UniProt P0A6S5). Nature of the assay: SEC; analytical gel filtration, Superdex 200 10/300 GL, buffer B (20 mM Tris-HCl pH 8.0, 200 mM NaCl), 0.5 mL/min; high concentrations (101–370 μM); apparent Stokes radius compared with radii calculated from models.
The target is the same in assay [2]. As to the kind of experiment: SEC; analytical gel filtration, Superdex 200 10/300 GL, buffer B (20 mM Tris-HCl pH 8.0, 200 mM NaCl), 0.5 mL/min; low concentrations (6.8–22.2 μM); apparent Stokes radius compared with radii calculated from models.
For assay [3], the target named is GST-fused e5-FtsB_(25–103) E68A/k5-FtsL_(64–121) complex (E. coli) (UniProt P0A6S5). As to the kind of experiment: BLI; BLItz; GST-fused FtsB proteins or GST-e5-FtsB/k5-FtsL complexes immobilised on AR2G biosensor by amine coupling; FtsQ_(50–276) (WT or Y248A) in solution, 0.1–80 μM; running buffer 20 mM Tris-HCl pH 8.0, 200 mM NaCl; equilibrium analysis of points at 100 s. A general note: In BLI a coated tip is dipped into the sample, and binding shifts an interference pattern.

In assay [4] the target is GST-fused e5-FtsB_(25–103)/k5-FtsL_(64–121) complex (WT) (E. coli) (UniProt P0A6S5). The description is as above.
In assay [5] the target is FtsQ_(50–276) (UniProt P06136). As to the kind of experiment: BLI. As to conditions: GST-e5-FtsB (mutant) in complex with k5-FtsL immobilized; FtsQ analyte 0-80 µM; parent: 0.24 ± 0.01.

The Kd is a measure of binding affinity in units of concentration.

Some results are limits rather than exact numbers.

FtsQ_(50–276) (from UniProt P06136 50-276) (domain or fragment), sequence (P06136 50-276): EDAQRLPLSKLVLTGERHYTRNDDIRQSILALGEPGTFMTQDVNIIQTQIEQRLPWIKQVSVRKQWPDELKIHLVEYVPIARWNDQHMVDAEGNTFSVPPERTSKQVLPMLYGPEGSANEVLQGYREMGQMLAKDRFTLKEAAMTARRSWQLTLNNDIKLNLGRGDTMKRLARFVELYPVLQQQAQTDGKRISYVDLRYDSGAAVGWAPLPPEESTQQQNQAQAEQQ
FtsQ_(50–276) (UniProt P06136), sequence (P06136 whole entry, looked up, tested part not stated): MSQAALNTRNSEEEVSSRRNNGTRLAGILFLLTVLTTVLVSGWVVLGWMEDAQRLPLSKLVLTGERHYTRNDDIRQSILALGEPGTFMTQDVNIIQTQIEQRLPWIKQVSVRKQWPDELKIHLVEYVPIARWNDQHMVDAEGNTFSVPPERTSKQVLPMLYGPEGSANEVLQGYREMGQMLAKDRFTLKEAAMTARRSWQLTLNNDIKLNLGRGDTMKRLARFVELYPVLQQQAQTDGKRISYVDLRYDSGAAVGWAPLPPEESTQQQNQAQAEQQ

For the substance “FtsQ_(50–276) (from UniProt P06136 50-276) (domain or fragment)”, in assay [1], the stoichiometry N (FtsQ:FtsB:FtsL ratio (1:1:1)) is 1 and the stoichiometry N (FtsQ:FtsB:FtsL ratio (2:2:2)) was 1. In assay [2], the stoichiometry N (FtsQ:FtsB:FtsL ratio (1:1:1)) is 1 and the stoichiometry N (FtsQ:FtsB:FtsL ratio (2:2:2)) was 1. In assay [3], the fold reduction of affinity against WT was found to be 10 fold. Besides, the Kd in assay [4] was determined as 0.24 µM.

For the substance “GST-fused e5-FtsB_(25–103)/k5-FtsL_(64–121) complex (WT) (from UniProt P0A6S5;P0AEN4) E69R”, in assay [5], the dissociation constant (Kd) is greater than 100 µM.

As for “GST-fused e5-FtsB_(25–103)/k5-FtsL_(64–121) complex (WT) (from UniProt P0A6S5;P0AEN4) E82R”, the Kd in assay [5] was greater than 100 µM.

Consider “GST-fused e5-FtsB_(25–103)/k5-FtsL_(64–121) complex (WT) (from UniProt P0A6S5;P0AEN4) R72E”, for which, in assay [5], the Kd is greater than 100 µM.

The values are drawn from paper PMC6305486.
